This is an account of results in patent US20160355583A1 (Novartis, published 2016).

As a reminder, the IC50 is the concentration that gives 50% inhibition. Broadly, the kon is a measure of how fast the partners come together. Higher therefore signals fast association. For orientation: koff means the rate constant with which the complex falls apart. Lower therefore signals slow dissociation.

The target in experiment [1] is T1, human BMP7 (human, UniProt P18075 293-431).
T1 construct: Bought recombinant protein; also called huBMP7; rhBMP7 (R&D Cat#354-BP-010)
T1 sequence (looked up): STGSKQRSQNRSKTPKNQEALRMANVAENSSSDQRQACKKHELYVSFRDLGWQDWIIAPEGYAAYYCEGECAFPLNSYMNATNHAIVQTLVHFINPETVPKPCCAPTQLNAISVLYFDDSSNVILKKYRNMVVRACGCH
The experiment in a line: table caption: MSD-SET; Example 6 describes Biacore SPR for BMP2, BMP7, BMP10. For orientation: SPR reads the build-up and loss of mass on a sensor chip optically.

The target of experiment [2] is T2, human BMP2 (human, UniProt P12643 283-396).
T2 construct: Bought recombinant protein; also called huBMP2; rhBMP2 (R&D Cat#355-BM-010)
The description is as above.

Experiment [3] addresses T3, human BMP10 (Bone Morphogenetic Protein 10 Preproprotein [Homo sapiens], NP_055297) (human, UniProt O95393 317-424).
T3 construct: Bought recombinant protein; also called huBMP10; rhBMP10 (R&D Cat#2926-BP-025)
T3 sequence: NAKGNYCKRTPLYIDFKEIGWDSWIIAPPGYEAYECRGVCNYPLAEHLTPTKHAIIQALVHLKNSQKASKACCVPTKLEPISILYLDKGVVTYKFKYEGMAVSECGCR
The experiment in a line: Table 5 (caption: MSD-SET; Example 6 describes Biacore SPR on immobilised rhBMP10, Fab 31.25-1000 nM).

The next experiment deals with T4, cyno BMP9 (cyno, UniProt G7PEU8 320-429).
T4 sequence: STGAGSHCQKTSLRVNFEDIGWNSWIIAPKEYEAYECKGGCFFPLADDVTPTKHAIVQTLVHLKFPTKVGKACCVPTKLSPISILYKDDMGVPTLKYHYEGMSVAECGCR
The experiment in a line: MSD-SET solution equilibrium titration. How it is done:
(§1) The amount of free Fab binding sites was determined by transferring the mixtures on antigen-coated plates and a brief incubation. The free Fab was consequently bound to the plate and detected with a detection antibody after a washing step for removing Fab-antigen complexes. The resulting signal was plotted versus the antigen concentration; and the KD was accurately determined by non-linear curve fitting.
(§2) A 22 serial 2ⁿ dilution of the antigens (human BMP9 (GD-43-KS00); cyno BMP9, rat BMP9 (R&D Systems 5566-BP) or mouse BMP9 (iPROT101715)) was prepared in incubation buffer (PBS (Teknova Cat#P0195) containing 0.5% BSA (Sigma Cat#A7906-500G) and 0.02% Tween-20 (VWR Cat#437082Q)). A constant concentration of the Fab was added. A volume of 60 ul of each antigen:Fab mix was distributed in duplicates to a 384-well polypropylene microtiter plate (PP MTP, Greiner Cat#781280). Incubation buffer served as negative control and a sample containing no antigen served as positive control (Bₘₐₓ). The plate was sealed and incubated overnight (O/N) at room temperature (RT).
(§3) A 384-well standard MSD array plate (Meso Scale Discovery Cat#L21XA) was coated with 30 ul/well human BMP9 diluted in PBS as capture agent and incubated O/N at 4° C. After washing for 3 times with 70 ul/well washing buffer (TBS (Teknova Cat#T1680) with 0.05% Tween-20), the plate was blocked with 50 ul/well blocking buffer (PBS with 5% BSA) for 1 hour at RT. After washing, a volume of 30 ul/well of the antigen:Fab mix was transferred from the PP MTP to the coated MSD plate and incubated for 20 min at RT. After an additional wash step, 30 ul of detection antibody (Goat anti-human Fab specific (Jackson Immuno Research Cat#109-005-097) conjugated with MSD SULFO-TAG NHS Ester (Meso Scale Discovery Cat#R91AN-1)) diluted 1:1000 in incubation buffer was added to each well and incubated for 30 min at RT. The MSD plate was washed and 35 ul/well of read buffer (MSD Read Buffer T 4×, Meso Scale Discovery Cat#R92TC-1) was added and then incubated for 5 min at RT. ECL signals were measured with the MSD SECTOR Imager 6000. The data was evaluated with XLfit (IDBS) software following a 1:1 fit model for Fab (according to Piehler et al., 1997).

In another experiment the target is T5, mouse BMP9 (mouse, UniProt Q9WV56 319-428, limits assumed).
T5 construct: also called murine BMP9; mouse BMP9 (iPROT101715)
T5 sequence (looked up): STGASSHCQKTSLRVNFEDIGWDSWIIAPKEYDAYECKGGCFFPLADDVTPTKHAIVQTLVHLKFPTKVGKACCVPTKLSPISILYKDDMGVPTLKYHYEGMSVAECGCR
The experiment in a line: MSD-SET solution equilibrium titration. How it is done: as §1, §2, §3

The target of experiment [4] is T6, human BMP9 (BMP9/Growth Differentiation Factor 2 [Homo sapiens], NP_057288) (human, UniProt Q9UK05 320-429, limits assumed).
T6 construct: cell assays use 'recombinant human BMP9 complex'; also called huBMP9; hBMP9
T6 sequence: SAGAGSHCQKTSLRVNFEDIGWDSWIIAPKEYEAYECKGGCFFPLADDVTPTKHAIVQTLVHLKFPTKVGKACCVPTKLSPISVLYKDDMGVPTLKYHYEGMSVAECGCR
The experiment in a line: MSD-SET solution equilibrium titration. How it is done:
as §1, §2, §3

A further experiment addresses T7, rat BMP9 (rat, UniProt M0RB87 320-430, The mature growth factor is a disulfide-linked homodimer. One copy of the polypeptide is given.).
T7 construct: also called rat BMP9 (R&D Systems 5566-BP); rat BMP9 condition medium
T7 sequence: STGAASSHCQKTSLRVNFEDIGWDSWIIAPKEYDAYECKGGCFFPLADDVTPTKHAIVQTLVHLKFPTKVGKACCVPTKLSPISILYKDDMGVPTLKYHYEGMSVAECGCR
The experiment in a line: MSD-SET solution equilibrium titration. How it is done: as §1, §2, §3

In experiment [5] the target is T6, human BMP9 (BMP9/Growth Differentiation …). The experiment in a line: blocking ELISA; competitor Type I BMP receptor (AlkI). How it is done:
(§4) Blocking ELISA was used to identify positive clones that can inhibit the interactions between BMP9 and its receptors. Four different recombinant BMP9 receptors can be used: human Alk1-Fc (R&D system, 370-AL-100); human BMPRII-Fc (R&D system, 811-BR-100); human ActRIIA-Fc (R&D system, 340-R2-100); human ActRIIB-Fc (R&D system).
(§5) The blocking activity of antibody sample to specific ligand/receptor combination was measured by ELISA. In brief, 50 ul of receptor at a concentration of 1 ug/ml in coating buffer (PBS) was added into 96 well ELISA plates at 4° C. overnight, followed by washing with PBST one time. ELISA plates were blocked with 200 ul blocking buffer (PBST containing 1% BSA) in each well and then incubated at room temperature (RT) for 1 hour, followed by washing with PBST for 3 times. Diluted antibody sample was mixed with biotinylated human BMP9 (bio-hBMP9 of 1 ug/ml) and incubated at RT for 45 minutes. The mixture of antibody and bio-hBMP9 was added to the plates of 50 ul/well and then incubated at RT for 30 minutes, followed by washing with PBST for 3 times. 50 ul Poly-HRP Streptavidin (Thermofisher, 21140) was added to each well of the plates and incubated at RT for 30 minutes, followed by washing with PBST for 5 times. Finally, 50 ul of TMB reagent (Invitrogen 002023) and 50 ul of 1N HCl (Invitrogen SS01100) were added to each well to stop the reaction. Absorbance of each well was read at 450 nm to get readout OD₄₅₀.

Experiment [6] has the same target. The experiment in a line: cell-based or functional assay.
For experiment [7] the target is unchanged. The experiment in a line: Biacore SPR, bivalent model, ka1.
Experiment [8] shares this target. The experiment in a line: Biacore SPR, bivalent model, kd1.
Experiment [9] shares this target. The experiment in a line: Biacore SPR, bivalent model, KD from ka1 and kd1.
In experiment [10] the target is T3, human BMP10 (Bone Morphogenetic Protein …). The experiment in a line: Table 7 (caption: MSD-SET; Example 6 describes Biacore SPR on immobilised rhBMP10, Fab 31.25-1000 nM).
Experiment [11] deals with T6, human BMP9 (BMP9/Growth Differentiation …). The experiment in a line: cell-based or functional assay. This is another data set of the same source.
Experiment [12] deals with T2, human BMP2. The experiment in a line: table caption: MSD-SET; Example 6 describes Biacore SPR for BMP2, BMP7, BMP10. This is another data set of the same source.
In experiment [13] the target is T1, human BMP7. The experiment in a line: Table 5 (caption: MSD-SET; Example 6 describes Biacore SPR on immobilised rhBMP7, Fab 31.25-1000 nM).
Experiment [14] deals with T6, human BMP9 (BMP9/Growth Differentiation …). The experiment in a line: blocking ELISA; competitor Type II BMP receptor (ActRIIB, BMPRII). How it is done:
as §4, §5
(ELISA stands for enzyme-linked immunosorbent assay.)

Experiment [15] deals with T2, human BMP2. The experiment in a line: Table 5 (caption: MSD-SET; Example 6 describes Biacore SPR on immobilised rhBMP2, Fab 31.25-1000 nM).

Where two headings read alike, the source gives them in different places. A value given as a limit tells only on which side of the number the result lay.

T2 sequence (P12643 283-396 limits assumed): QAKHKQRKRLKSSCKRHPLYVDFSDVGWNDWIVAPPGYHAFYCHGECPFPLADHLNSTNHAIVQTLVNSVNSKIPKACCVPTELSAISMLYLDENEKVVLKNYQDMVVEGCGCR

B1: Antibody BMP9-4: AM4405 (antibody, human IgG1, kappa, V domains shown)
VH: QVQLVQSGAEVKKPGASVKVSCKASGYTFRSYNMHWVRQAPGQGLEWMGLIYPGNAVTSYSQKFKDRVTMTVDKSTSTAYMELSSLRSEDTAVYYCAKDDYFRGGSYAMDYWGQGTTVTVSS
VL: EIVLTQSPDFQSVTPKEKVTITCRASQSIRNNLHWYQQKPDQSPKLLIKYASQSIRGVPSRFSGSGSGTDFTLTINSLEAEDAATYYCQQSHSWPYTFGGGTKVEIKR
notes: also called 2B11G2-AM4405
In the case of B1, the Kd was 9170 nM with human BMP7 [1]; 177 nM in the experiment with human BMP2 [2]; 0.048 nM in the experiment with cyno BMP9; 0.008 nM with mouse BMP9; 0.018 nM in experiment [4]; 0.013 nM in the experiment with rat BMP9. Also, in experiment [3], the binding result was “no binding”. Further, the 50% inhibitory concentration (IC50) in experiment [5] is at most 1 nM. The “RGA IC50 [pM] (HEK293T BRE-Luc reporter gene assay)” value (“RGA IC50 [pM]” for short) in experiment [6] was 90 pM.

B2: Mouse Antibody 2B11G2 (antibody, V domains shown)
VH: QAYLQQSGAELVRPGASVKMSCKASGYTFPSYNMHWVKQTPRQGLEWIGVIYPGNGVTSYSQKFKDKATLTVDKSSSTAYMQLSSLTSEDSAVYFCAKDDYFYGGSYAMDYWGQGTSVTVSS
VL: DIVLTQSPATLSVTPGDSVSLSCRASQSISNNLHWYQQISHESPRLLIKYASQSISGIPSRFSGSGSGTDFTLSINSMETEDFGMFFCQQSHSWPYTFGGGTKLEIK
notes: Mouse hybridoma monoclonal antibody; also called B211G2
In [7], B2 registered a kon of 2510 M⁻¹ s⁻¹. Moreover, the koff in [8] is 0.000166 s⁻¹. The molecule further yielded a Kd in [9] of 66.2 nM.

B3: Antibody BMP9-6: MOR022965 (antibody, human IgG1, kappa, V domains shown)
VH: QVQLVQSGAEVKKPGSSVKVSCKASGGTFSSYAISWVRQAPGQGLEWMGHIIPHWGHARYAQKFQGRVTITADESTSTAYMELSSLRSEDTAVYYCARSASSLPHFHWFDYWGQGTLVTVSS
VL: DIQMTQSPSSLSASVGDRVTITCRASQDINNYLNWYQQKPGKAPKLLIYAASRLQSGVPSRFSGSGSGTDFTLTISSLQPEDFATYYCQQRDTTPWTFGQGTKVEIKR
notes: Fully human, phage display
Regarding B3, the binding result in experiment [10] is “no binding”. For the same molecule, the Kd in the experiment with cyno BMP9 was 0.023 nM; with mouse BMP9, 0.069 nM; in experiment [4] it was 0.032 nM; with human BMP2 [12], 3110 nM. In addition, the concentration for half-maximal inhibition (IC50) in experiment [5] is at most 1 nM. Besides, the “RGA IC50 [pM]” value in experiment [11] turned out to be 180 pM.

B4: Antibody BMP9-1: AM0100 (antibody, human IgG1, kappa, V domains shown)
VH: QVQLVQSGAEVKKPGASVKVSCKASGYTFTRYWMHWVRQAPGQGLEWMGEINPSQGGTNYNEKFKSRVTMTVDKSISTAYMELSRLRSDDTAVYYCAIGSNYGGLVYWGQGTLVTVSS
VL: EIVLTQSPATLSLSPGERATLSCRASESLDNYGISFMNWFQQKPGQAPRFLIYAASNQGSGIPARFSGSGSGTDFTLTISSLQPEDTAVYFCQQSKEVPRTFGGGTKVEIKR
notes: also called 4E10D7-AM0100
Consider B4, for which the binding result (in the experiment with human BMP7 [13]; in [3]; with human BMP2 [15]) was “no binding” in each case. Further, in experiment [14], the concentration for half-maximal inhibition (IC50) is at most 1 nM. The Kd in the experiment with cyno BMP9 worked out at 0.128 nM; in the experiment with mouse BMP9 it was 0.073 nM; in [4], 0.182 nM; with rat BMP9 it was 0.094 nM. Besides, the “RGA IC50 [pM]” value in [6] came out at 83 pM.

B5: Mouse Antibody 4E10D7 (antibody, V domains shown)
VH: QVQLQQPGAEAVKPGASVKLSCKASGYTFTRYWMHWVKQRPGQGLEWIGEINPSNGGTNYNEKFKSKATLTVDKSSSTAYMQLSSLTSEDFAVYYCTMGSNYGGFVYWGQGTLVTVSA
VL: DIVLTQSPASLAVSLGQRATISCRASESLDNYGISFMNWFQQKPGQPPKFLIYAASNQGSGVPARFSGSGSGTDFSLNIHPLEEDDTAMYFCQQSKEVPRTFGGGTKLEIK
notes: Mouse hybridoma monoclonal antibody; also called parental 4E10D7 antibody
For B5, in experiment [7], the on-rate (kon) was 281000 M⁻¹ s⁻¹. This molecule also gave a koff in [8] of 0.000617 s⁻¹. In experiment [9], this molecule registered a Kd of 2.2 nM.
